From the Human Domainome abundance scans (Beltran et al. 2025)
± gives the uncertainty stated by the source.

B1: Ras GTPase-activating protein 1, residues 281 to 341; numbered along this chain, P20936 (parent)
chain: RRRVRAILPYTKVPDTDEISFLKGDMFIVHNELEDGWMWVTNLRTDEQGLIVEDLVEEVGR

Variants of: B1
Assay: abundance fitness (aPCA) (normalised: wild type 0, dead -1); higher = more abundant; growth selection in yeast, the domain comes from the species named
Conditions: Homo sapiens

First: RRRVRAILPYTKVPDTDLISFLKGDMFIVHNELEDGWMWVTNLRTDEQGLIVEDLVEEVGR [E18L]
Second: RRRVRAILPYTKVPDTDWISFLKGDMFIVHNELEDGWMWVTNLRTDEQGLIVEDLVEEVGR [E18W]
The abundance fitness of the first is higher: -0.35 ± 0.039 for the first, -1.28 ± 0.29 for the second.

RRRVRAILPYTKVPDTDCISFLKGDMFIVHNELEDGWMWVTNLRTDEQGLIVEDLVEEVGR [E18C] and RRRVRAILPYTKVPDTDRISFLKGDMFIVHNELEDGWMWVTNLRTDEQGLIVEDLVEEVGR [E18R] are within error of each other in abundance fitness: -0.341 ± 0.03 for the first, -0.353 ± 0.034 for the second.

RRRVRAILPYTKVPDTDMISFLKGDMFIVHNELEDGWMWVTNLRTDEQGLIVEDLVEEVGR [E18M] and RRRVRAILPYTKVPDTDGISFLKGDMFIVHNELEDGWMWVTNLRTDEQGLIVEDLVEEVGR [E18G] are within error of each other in abundance fitness: -0.42 ± 0.082 for the first, -0.507 ± 0.031 for the second.

First: RRRVRAILPYTKVPDTDIISFLKGDMFIVHNELEDGWMWVTNLRTDEQGLIVEDLVEEVGR [E18I]
Second: RRRVRAILPYTKVPDTDFISFLKGDMFIVHNELEDGWMWVTNLRTDEQGLIVEDLVEEVGR [E18F]
The abundance fitness of the first is higher: -0.35 ± 0.036 for the first, -0.498 ± 0.036 for the second.

Compared with RRRVRAILPYTKVPDTDQISFLKGDMFIVHNELEDGWMWVTNLRTDEQGLIVEDLVEEVGR [E18Q], RRRVRAILPYTKVPDTCEISFLKGDMFIVHNELEDGWMWVTNLRTDEQGLIVEDLVEEVGR [D17C] is lower in abundance fitness: 0.047 ± 0.089 for the first, -0.105 ± 0.03 for the second.

First: RRRVRAILPYTKVPDTNEISFLKGDMFIVHNELEDGWMWVTNLRTDEQGLIVEDLVEEVGR [D17N]
Second: RRRVRAILPYTKVPDTFEISFLKGDMFIVHNELEDGWMWVTNLRTDEQGLIVEDLVEEVGR [D17F]
The abundance fitness of the first is higher: -0.037 ± 0.032 for the first, -0.182 ± 0.028 for the second.

Going from RRRVRAILPYTKVPDTGEISFLKGDMFIVHNELEDGWMWVTNLRTDEQGLIVEDLVEEVGR [D17G] to RRRVRAILPYTKVPDTIEISFLKGDMFIVHNELEDGWMWVTNLRTDEQGLIVEDLVEEVGR [D17I], the abundance fitness falls from -0.094 ± 0.026 to -0.275 ± 0.033.

RRRVRAILPYTKVPDTSEISFLKGDMFIVHNELEDGWMWVTNLRTDEQGLIVEDLVEEVGR [D17S] and RRRVRAILPYTKVPDTQEISFLKGDMFIVHNELEDGWMWVTNLRTDEQGLIVEDLVEEVGR [D17Q] are within error of each other in abundance fitness: -0.049 ± 0.024 for the first, -0.011 ± 0.061 for the second.

Compared with RRRVRAILPYTKVPDTWEISFLKGDMFIVHNELEDGWMWVTNLRTDEQGLIVEDLVEEVGR [D17W], RRRVRAILPYTKVPDTREISFLKGDMFIVHNELEDGWMWVTNLRTDEQGLIVEDLVEEVGR [D17R] is higher in abundance fitness: -0.136 ± 0.051 for the first, 0.005 ± 0.03 for the second.

RRRVRAILPYTKVPDTEEISFLKGDMFIVHNELEDGWMWVTNLRTDEQGLIVEDLVEEVGR [D17E] and RRRVRAILPYTKVPDTLEISFLKGDMFIVHNELEDGWMWVTNLRTDEQGLIVEDLVEEVGR [D17L] are within error of each other in abundance fitness: -0.006 ± 0.053 for the first, -0.065 ± 0.033 for the second.

RRRVRAILPYTKVPDTYEISFLKGDMFIVHNELEDGWMWVTNLRTDEQGLIVEDLVEEVGR [D17Y] and RRRVRAILPYTKVPDTHEISFLKGDMFIVHNELEDGWMWVTNLRTDEQGLIVEDLVEEVGR [D17H] are within error of each other in abundance fitness: -0.084 ± 0.026 for the first, -0.061 ± 0.03 for the second.

RRRVRAILPYTKVPDTMEISFLKGDMFIVHNELEDGWMWVTNLRTDEQGLIVEDLVEEVGR [D17M] and RRRVRAILPYTKVPDTPEISFLKGDMFIVHNELEDGWMWVTNLRTDEQGLIVEDLVEEVGR [D17P] are within error of each other in abundance fitness: -0.059 ± 0.044 for the first, -0.088 ± 0.037 for the second.

Compared with RRRVRAILPYTKVPDYDEISFLKGDMFIVHNELEDGWMWVTNLRTDEQGLIVEDLVEEVGR [T16Y], RRRVRAILPYTKVPDWDEISFLKGDMFIVHNELEDGWMWVTNLRTDEQGLIVEDLVEEVGR [T16W] is higher in abundance fitness: -0.942 ± 0.06 for the first, -0.688 ± 0.061 for the second.

RRRVRAILPYTKVPDTDEIMFLKGDMFIVHNELEDGWMWVTNLRTDEQGLIVEDLVEEVGR [S20M] and RRRVRAILPYTKVPDTDEIHFLKGDMFIVHNELEDGWMWVTNLRTDEQGLIVEDLVEEVGR [S20H] are within error of each other in abundance fitness: -1.09 ± 0.2 for the first, -0.977 ± 0.08 for the second.

Going from RRRVRAILPYTKVPDTDEINFLKGDMFIVHNELEDGWMWVTNLRTDEQGLIVEDLVEEVGR [S20N] to RRRVRAILPYTKVPDTDEIWFLKGDMFIVHNELEDGWMWVTNLRTDEQGLIVEDLVEEVGR [S20W], the abundance fitness falls from -0.14 ± 0.03 to -0.511 ± 0.1.

RRRVRAILPYTKVPDTDEIKFLKGDMFIVHNELEDGWMWVTNLRTDEQGLIVEDLVEEVGR [S20K] and RRRVRAILPYTKVPDTDEIYFLKGDMFIVHNELEDGWMWVTNLRTDEQGLIVEDLVEEVGR [S20Y] are within error of each other in abundance fitness: -0.853 ± 0.12 for the first, -0.881 ± 0.063 for the second.

Compared with RRRVRAILPYTKVPDTDEIGFLKGDMFIVHNELEDGWMWVTNLRTDEQGLIVEDLVEEVGR [S20G], RRRVRAILPYTKVPDTDEIEFLKGDMFIVHNELEDGWMWVTNLRTDEQGLIVEDLVEEVGR [S20E] is lower in abundance fitness: -0.386 ± 0.028 for the first, -0.641 ± 0.08 for the second.

Going from RRRVRAILPYTKVPDTDEITFLKGDMFIVHNELEDGWMWVTNLRTDEQGLIVEDLVEEVGR [S20T] to RRRVRAILPYTKVPDTDEICFLKGDMFIVHNELEDGWMWVTNLRTDEQGLIVEDLVEEVGR [S20C], the abundance fitness falls from -0.171 ± 0.035 to -0.318 ± 0.029.

Going from RRRVRAILPYTKVPDTDEIAFLKGDMFIVHNELEDGWMWVTNLRTDEQGLIVEDLVEEVGR [S20A] to RRRVRAILPYTKVPDTDEIIFLKGDMFIVHNELEDGWMWVTNLRTDEQGLIVEDLVEEVGR [S20I], the abundance fitness falls from -0.669 ± 0.053 to -0.844 ± 0.053.

First: RRRVRAILPYTKVPDTDEIDFLKGDMFIVHNELEDGWMWVTNLRTDEQGLIVEDLVEEVGR [S20D]
Second: RRRVRAILPYTKVPDTDEIPFLKGDMFIVHNELEDGWMWVTNLRTDEQGLIVEDLVEEVGR [S20P]
The abundance fitness of the first is higher: -0.111 ± 0.029 for the first, -0.639 ± 0.077 for the second.

RRRVRAILPYTKVPDTDEIVFLKGDMFIVHNELEDGWMWVTNLRTDEQGLIVEDLVEEVGR [S20V] and RRRVRAILPYTKVPDTDEIFFLKGDMFIVHNELEDGWMWVTNLRTDEQGLIVEDLVEEVGR [S20F] are within error of each other in abundance fitness: -0.972 ± 0.057 for the first, -0.877 ± 0.067 for the second.

Compared with RRRVRAILPYTKVPDTDEILFLKGDMFIVHNELEDGWMWVTNLRTDEQGLIVEDLVEEVGR [S20L], RRRVRAILPYTKVPDTDEIQFLKGDMFIVHNELEDGWMWVTNLRTDEQGLIVEDLVEEVGR [S20Q] is higher in abundance fitness: -1.07 ± 0.095 for the first, -0.828 ± 0.13 for the second.
